Test results as given in paper PMC8119428, “LSD1-mediated demethylation of OCT4 safeguards pluripotent stem cells by maintaining the transcription of PORE-motif-containing genes”.

Target: OCT4 K222F (Homo sapiens, UniProt Q01860 1-360, K222F)
Assay: EMSA; homodimer; significantly increased vs WT and other variants; LightShift EMSA: 20 ul, 1.5 ug His-OCT4, 0.5 ug His-SOX2 where used, 50 nM biotin-dsDNA, 1 ul poly(dI-dC), 1x loading buffer (salt and pH not stated), 30 min, 25 C
Conditions: protein: recombinant; tags: His (pET28a); label: 5'-biotin on sense strand; blunt

Sequence of OCT4 K222F (Q01860 whole entry K222F): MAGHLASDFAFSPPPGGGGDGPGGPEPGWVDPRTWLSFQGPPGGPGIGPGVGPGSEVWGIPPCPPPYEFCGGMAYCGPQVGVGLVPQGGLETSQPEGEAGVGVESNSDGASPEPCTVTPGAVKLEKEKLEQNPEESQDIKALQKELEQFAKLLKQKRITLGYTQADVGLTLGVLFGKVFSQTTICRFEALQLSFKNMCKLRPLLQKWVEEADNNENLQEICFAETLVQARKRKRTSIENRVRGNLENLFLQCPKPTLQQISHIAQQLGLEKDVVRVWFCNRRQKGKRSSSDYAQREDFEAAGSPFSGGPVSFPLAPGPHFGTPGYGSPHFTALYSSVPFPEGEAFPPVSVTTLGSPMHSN

B1: PORE probe (dsDNA)
DNA 1: TATACTAAGCAATTCTTCATTGATTTGAAATGCAAATTTGACTGGGCACCCTGTATCTT
DNA 2: AAGATACAGGGTGCCCAGTCAAATTTGCATTTCAAATCAATGAAGAATTGCTTAGTATA
B1: binds.
